The record followed here is publication PMC5703901, “Rational design of cholesterol oxidase for efficient bioresolution of cholestane skeleton substrates” (Scientific Reports, 2017).

Positions count from the first letter of the chain named. Names and notes keep the numbering of the source.

B1: PsChO (Pimelobacter simplex; V115C) (protein)
chain: VLVIGTGYGGAVAALRLAQAGVQVEMIEMGMSWDTPGSDGKIFAKVTSPDKRAYWLRTKTKAPCSNFFGFPIDATIPKYTGILDAEEFAGITVYQGRGVGGGSLVNGGMAVTPKQSRFSSILPSVDAAEMYATYYPRANAGLGVGSIDPAWFETAECYKYARVGRKHAQRSGFAWTFVPDVYDWNYMKAEQAGTVTRSALDGQVMYGNDHGKKSLVQTYLAQALATGRVNVSTLHQVTAVAPRSGGGYTVSIDQLDTSGNVVGTKSVTAGKVFFAAGSVGTSKLLTKLKATGSLPALNNEIGKGWGDNGNVMCGRANHMWDPTGSLQSTIPCSGIDNWDAGGAFAEVAPLPTGIETYASLYLSITNTTRRAEFSWNAAANKVDLSWQTAWKQDSINMAKTIFDKINSKEGTIYRTDLFGAYKVWQDGLTYHPLGGAVLNKATDNYGRLHGYNGLYVIDGALIPGNTTVNPFVTITALAERNIDNILANDI
notes: wild-type gene in pET28a(+), E. coli BL21(DE3), His6-tagged, Ni-NTA purified; noncovalent FAD type; catalytic H431, E346, N469
B2: PsChO (Pimelobacter simplex; F121V) (protein)
chain: B1 chain with C64V, F70V
notes: as for B1
B3: PsChO (Pimelobacter simplex) (protein)
chain: B1 chain with C64V
notes: as for B1

Substrate in the first data set: CC[C@H](/C=C/[C@@H](C)[C@H]1CC[C@H]2[C@@H]3CC=C4C[C@@H](O)CC[C@]4(C)[C@H]3CC[C@]12C)C(C)C
In words: peroxidase-coupled 4-aminoantipyrine/phenol H2O2 assay, OD500. Conditions: 25 mM phosphate pH 7.5, isopropanol and Triton X-100, temperature not stated for kinetics. In kind it is biochemical, Pimelobacter simplex. From the text:
(§1) peroxidase-coupled 4-aminoantipyrine/phenol H2O2 assay, OD500 on PsChO
In the case of B1, the Km worked out at 528.84 ± 3.59 µM, the kcat worked out at 4.23 ± 0.19 s⁻¹ and the kcat/Km worked out at 8000 ± 200 M⁻¹ s⁻¹.

Consider B2, for which the Km came to 384.12 ± 3.84 µM, the kcat came out at 7.68 ± 0.27 s⁻¹ and the kcat/Km is 20000 ± 200 M⁻¹ s⁻¹.

B3: the Michaelis-Menten constant (Km) was 789.61 ± 4.71 µM, the kcat worked out at 1.58 ± 0.07 s⁻¹ and the specificity constant (kcat/Km) worked out at 2000 ± 100 M⁻¹ s⁻¹.

Substrate in a further data set: C[C@]12CC[C@H](O)CC1=CC[C@@H]1[C@@H]2CC[C@]2(C)C(=O)CC[C@@H]12
Described as above. In kind it is biochemical, Pimelobacter simplex. Conditions: 25 mM phosphate pH 7.5, isopropanol and Triton X-100, temperature not stated for kinetics.
Source text: as §1
For B1, the Km came to 318.81 ± 3.25 µM, the kcat turned out to be 9.56 ± 0.34 s⁻¹ and the kcat/Km came out at 30000 ± 500 M⁻¹ s⁻¹.

For the protein B2, the Km worked out at 273.52 ± 2.13 µM, the kcat stood at 13.7 ± 0.2 s⁻¹ and the kcat/Km is 50000 ± 600 M⁻¹ s⁻¹.

B3: the Km is 341.21 ± 3.79 µM, the kcat was found to be 6.82 ± 0.14 s⁻¹ and the kcat/Km was found to be 20000 ± 400 M⁻¹ s⁻¹.

Substrate in a further data set: CC(C)CCC[C@@H](C)[C@H]1CC[C@H]2[C@@H]3CC=C4C[C@@H](O)CC[C@]4(C)[C@H]3CC[C@]12C
Described as above. In kind it is biochemical, Pimelobacter simplex. Particulars: 25 mM phosphate pH 7.5, isopropanol and Triton X-100, temperature not stated for kinetics.
Source text: as §1
In the case of B1, the Km stood at 178.31 ± 1.38 µM, the kcat was determined as 23 ± 0.29 s⁻¹ and the kcat/Km came to 130000 ± 500 M⁻¹ s⁻¹.

With B2, the Km was determined as 154.83 ± 3.31 µM, the kcat is 15.5 ± 0.3 s⁻¹ and the specificity constant (kcat/Km) was determined as 100000 ± 400 M⁻¹ s⁻¹.

For B3, the Km turned out to be 204.85 ± 3.14 µM, the kcat was 12.3 ± 0.32 s⁻¹ and the kcat/Km stood at 60000 ± 300 M⁻¹ s⁻¹.

Substrate in a further data set: [H][C@@]12CC=C3C[C@@H](O)CC[C@]3(C)[C@@]1([H])CC[C@@]1(C)[C@@]2([H])CC[C@]1([H])C(C)=O
The description is as above. In kind it is biochemical, Pimelobacter simplex. Particulars: 25 mM phosphate pH 7.5, isopropanol and Triton X-100, temperature not stated for kinetics.
Source text: as §1
On to B1, for which the Km amounted to 228.42 ± 3.24 µM, the kcat came to 13.7 ± 0.31 s⁻¹ and the kcat/Km stood at 60000 ± 600 M⁻¹ s⁻¹.

In the case of B2, the Km was determined as 190.61 ± 3.30 µM, the kcat is 15.2 ± 0.22 s⁻¹ and the kcat/Km is 80000 ± 400 M⁻¹ s⁻¹.

In the case of B3, the Km stood at 294.55 ± 2.97 µM, the kcat stood at 11.8 ± 0.34 s⁻¹ and the kcat/Km was found to be 40000 ± 500 M⁻¹ s⁻¹.

Substrate in the next data set: [H][C@@]12CC=C3C[C@@H](O)CC[C@]3(C)[C@@]1([H])CC[C@@]1(C)[C@@]2([H])CC[C@]1([H])[C@H](C)CC[C@@H](CC)C(C)C
The data set is described as above. In kind it is biochemical, Pimelobacter simplex. Particulars: 25 mM phosphate pH 7.5, isopropanol and Triton X-100, temperature not stated for kinetics.
Source text: as §1
For B1, the Km came to 220.76 ± 3.14 µM, the kcat stood at 13.2 ± 0.36 s⁻¹ and the kcat/Km was 60000 ± 700 M⁻¹ s⁻¹.

B2: the Km is 178.42 ± 1.61 µM, the kcat is 16.1 ± 0.33 s⁻¹ and the kcat/Km is 90000 ± 800 M⁻¹ s⁻¹.

As to B3, the Km stood at 328.61 ± 3.60 µM, the kcat is 9.86 ± 0.35 s⁻¹ and the kcat/Km amounted to 30000 ± 500 M⁻¹ s⁻¹.

As usually defined, the Km is the concentration of substrate that gives half-maximal velocity. By kcat is commonly meant the maximal rate divided by the concentration of active sites. The kcat/Km is the turnover number divided by the Michaelis constant.
